In patent US8101714B2, “Teleost derived antimicrobial polypeptides” (The University of Georgia Research Foundation, Inc., priority 2004, dated 2012):

Tests used:
E. coli, DH5alpha strain = assay: Anti-microbial modified broth dilution assay with recombinant NCAMP-1; format: cell-based; settings: for MIC50 (MIC for 50% bactericidal activity): 2 h incubation, colony counts
Method: (§1) The recombinant protein was examined for anti-microbial activity by a modified broth dilution assay. NCAMP-1 activity was tested against Gram positive (Micrococcus luteus, Streptococcus iniae) and Gram negative (E. coli, DH5alpha strain) microorganisms. S. iniae was grown and tested for susceptibility in Todd-Hewitt broth (THB) at 30° C. E. coli and M. luteus were grown and tested at 37° C. in Mueller-Hinton broth (MHB). Overnight cultures were diluted into fresh media and grown at the indicated temperature for 3-6 h. Cultures were diluted to 5000 CFUs (colony forming units)/ml in 10 mM sodium phosphate buffer (NAPB), supplemented to 10% wvith either MHB or THB. The relationship between A620 and CFUs was previously determined in our laboratory for each bacteria. Fifty microliters of bacteria (5000 CFUs) were added to an equal volume of NCAMP-1 (or control protein) diluted in 10 mM NAPB to the indicated protein concentration. Assay tubes were incubated at the appropriate temperatures for 2 h with shaking. Colony counts were then determined by plating serial dilutions of test cultures on the appropriate media. Results are expressed as CFUs/ml.

Streptococcus iniae = assay: as above; format: cell-based; settings: S. iniae
Method: as §1

Micrococcus luteus = assay: Anti-microbial assay, residual colony counts; format: cell-based; settings: M. luteus, 37 C, 2 h
Method: as §1, with “Fifty microliters of bacteria (5000 CFUs) were added to an equal volume of NCAMP-1 (or control protein) diluted in 10 mM NAPB to the indicated protein concentration. Assay tubes were incubated at the appropriate temperatures for 2 h with shaking.” left out
M. luteus were killed by full length recombinant NCAMP-1. […] After 2 hours, the OD620 was measured. Using a previously determined relationship of OD620 0.1=1.2×10^7 CFUs/ml, bacteria was diluted to 10^5 CFUs/ml in sodium phosphate buffer (pH8) supplemented with 10% with MH broth (assay buffer). […] Serial dilutions of each sample were plated onto MH agar plates and residual colony counts were determined. […]

GpC and CpG ODNs = assay: Southwestern (ODN) blot of recombinant NCAMP-1; format: binding; settings: Southwestern blotting, biotinylated ODNs, FIG. 13B
Method: Biotinylated ODNs were used to identify potential. DNA binding proteins in NCC membrane lysate preparations and to evaluate the ODN binding of recombinant NCAMP-1. Membrane lysates were prepared as indicated above. Purified recombinant NCAMP-1 was mixed with SDS-PAGE sample buffer (reducing) prior to electrophoresis. […] Membranes were blocked in Superblock (Pierce, Rockford Ill.) blocking solution with 0.05% Tween-20. ODN's were diluted in Superblock and added to membranes (1 h, room temperature). Membranes were washed (3×) in TBS with 0.5% Tween-20 (TBST). Neutraviden-HRP (Pierce) diluted in Superblock (minimum dilution 1:50000) was added and incubated for 30 min at room temperature. Blots were washed (3×) in TBST and were developed with enhanced chemiluminiscence (SuperSignal® West Pico Pierce, Rockford, Ill.).

| Molecule | MIC50 concentration (E. coli, DH5alpha strain) | MIC50 (MIC for 50% bactericidal activity) (E. coli, DH5alpha strain) | bactericidal activity (E. coli, DH5alpha strain; FIG. 17) | bactericidal activity (Streptococcus iniae; FIG. 17) | MIC50 (MIC for 50% bactericidal activity) (Streptococcus iniae; 2 h incubation, colony counts) | bactericidal activity (Micrococcus luteus) | ODN binding of recombinant protein (GpC and CpG ODNs) |
| --- | --- | --- | --- | --- | --- | --- | --- |
| NCAMP-d2: truncated recombinant NCAMP-1, aa 1-60 of SEQ ID NO:3 (MSAQAEETAPEAAAPVQPSQPAAKKKGPASKAKPASAEKKNKKKKGKGPGKYSQLVINAI; listed as Ictalurus punctatus) | 1.0 µM | 1.0 µM |  |  |  |  |  |
| NCAMP-1: NCC cationic antimicrobial protein-1 from channel catfish, 203 amino acids, SEQ ID NO:3; recombinant His-tagged form expressed in E. coli (protein, listed as Ictalurus punctatus, His tag, recombinant His-tagged form expressed in E. coli) MSAQAEETAPEAAAPVQPSQPAAKKKGPASKAKPASAEKKNKKKKGKGPGKYSQLVINAIQTLGERNGSSLFKIYNEAKKVNWFDQQHGRVYLRYSIRALLQNDTLVQVKGLGANGSFKLNKKKFIPRTKKSSVKPRKTAKPTKKPAKKAAKKKKRVSGVKKATPPPEKTSKPKKADKSPAVSAKKASKPKKAKQTKKTAKKT |  | 0.43 uM (SEQ ID NO: 3) | killed | killed | 0.86 µM | killed | bind to GpC (SEQ ID NO:11) and CpG (SEQ ID NO:7) |
| NCAMP-d1: truncated recombinant NCAMP-1, aa 1-118 of SEQ ID NO:3 (protein, listed as Ictalurus punctatus) MSAQAEETAPEAAAPVQPSQPAAKKKGPASKAKPASAEKKNKKKKGKGPGKYSQLVINAIQTLGERNGSSLFKIYNEAKKVNWFDQQHGRVYLRYSIRALLQNDTLVQVKGLGANGSF | 0.63 µM | 0.63 µM |  |  |  |  |  |
